Laboratory results published in PMC6365528.

What was measured:
[1] = substrate: CC1=CC[C@@H]2C[C@H]1C2(C)C; assay: cells, lysate or membranes; settings: Sf9 microsomes + MPB CPR, 1 mM NADPH, 50 mM potassium phosphate pH 7.4, 30 °C, 1 h
[2] = substrate: CC1=CC[C@H]2C[C@@H]1C2(C)C; assay: cells, lysate or membranes; settings: Sf9 microsomes + MPB CPR, 1 mM NADPH, 50 mM potassium phosphate pH 7.4, 30 °C, 1 h

B1: CYP6DE1 (Dendroctonus ponderosae) (protein)
chain: MALIIAVGLLLSIILLYCVYSKWKFQHWTRKGVPQLNPRLFFGDTLPLVRGQALKDFHLGLYQKFKSTGAKCVGIYNAHMPELVPIDIILLKDIMVKDYSYFSSHGVFYHEKNVLTSHLFNIEGQSWKERRTKLTPVFTSAKMKQMFDTVASKSPGLVRLVGLSADANKPADIKEILSRFTTDVISGAAFGLECKSLYEPDNMFRAIGKEAFEPNALKLYIEYLFPRQLLGSIGYQTFSSRIVSYFSKVVNETIQYREKNNVQRNDFMQLMLQLKQHGSLVKEDGSVDVKKTETQITDREILSESFLMFLAGHETSSSTSTFALFALSQNQDIQEKVRNEINEVLERHNGKLGYDALMEMEYLDKVIRETLRKYPTVPVIPRRCTKDYQIKNTNTVIDKGTRLYIPVIGVHLDPEYYPDPERFDPERFSPENKAKRPDIAWMPFGEGPRQCLGMRFGLLQSKVALASLLPTFRFTINKAMKPPYIADAGTLVYMFKQDVLLDATRIN
Question: For B1, which Km [1] is on record?
Answer: The Km was 292 ± 1 µM.

Question: What about the Vmax [1] of the same protein?
Answer: The Vmax was 0.42 µM/min.

Question: What about the kcat [1] of the same protein?
Answer: Its kcat is 0.17 s⁻¹.

Question: What about the kcat/Km [1] of the same protein?
Answer: The kcat/Km was 576 M⁻¹ s⁻¹.

Question: What about the Km [2] of the same protein?
Answer: The Km was 160 ± 1 µM.

Question: And the Vmax [2]?
Answer: Its Vmax is 0.96 µM/min.

Question: What about the kcat [2] of the same protein?
Answer: The kcat was 0.37 s⁻¹.

Question: And the kcat/Km [2]?
Answer: The kcat/Km was 2320 M⁻¹ s⁻¹.
